Test results as given in paper PMC3367187.
Read-outs that look alike come from different tables or passages of the source.

Columns and labels:
Assay in all cases: EMSA
HuRΔH = HuRΔH (UniProt Q15717 1-326, del186-242)
HuR (wild type) [1] = target: T1, HuR (wild type) (UniProt Q15717 1-326)
HuRΔ3 = HuRΔ3 (UniProt Q15717 1-242, del243-326)
HuR (wild type) [2] = target: T1, HuR (wild type); remark: listed apart in the source

B1: HBS_50_MBSp (ssRNA)
RNA: GGUAUUUAUUUAUUUAUUUGUUUGUUUGUUUUAUUGCUGUACGAGAGAGUCACUGUGCUGAUGUGGACUCAACAUCUGAUGAGCAACUAUACAACCUACUACCUCAACGUUACACU
binding result (HuRΔH): binds | binding result (HuR (wild type) [1]): binds | binding result (HuRΔ3): binds

B2: HBSMut_20_MBSp (ssRNA)
RNA: GGUAUAUAUGUCAUGCAUACGUAUGUGCGUAUCUACUAGGUCCAAAGAGUGAGACUGACUAUACAACCUACUACCUCAACGUUACACU
binding result (HuR (wild type) [2]): no binding

B3: ΔHBS_20_MBSp (ssRNA)
RNA: GGAGGUCCAAAGAGUGAGACUGACUAUACAACCUACUACCUCAACGUUACACU
binding result (HuR (wild type) [2]): no binding
